Data taken from PMC8693861, “Structure, mechanism, and inhibition of Hedgehog acyltransferase” (Molecular Cell, 2021).

Target: biotinylated human HHAT-Avi-1D4 (pHR-CMV-TetO2-HHAT-wildtype-Avi-1D4) (Homo sapiens, natural variant VAR_024743, strain, biotin on the biotinylation tag)
Experiment: cell-based or functional assay

biotinylated human HHAT-Avi-1D4 (pHR-CMV-TetO2-HHAT-wildtype-Avi-1D4) (Homo sapiens, natural variant VAR_024743, strain, biotin on the biotinylation tag), sequence (Q5VTY9 other isoform, or with tags, fused parts or gaps, change not shown): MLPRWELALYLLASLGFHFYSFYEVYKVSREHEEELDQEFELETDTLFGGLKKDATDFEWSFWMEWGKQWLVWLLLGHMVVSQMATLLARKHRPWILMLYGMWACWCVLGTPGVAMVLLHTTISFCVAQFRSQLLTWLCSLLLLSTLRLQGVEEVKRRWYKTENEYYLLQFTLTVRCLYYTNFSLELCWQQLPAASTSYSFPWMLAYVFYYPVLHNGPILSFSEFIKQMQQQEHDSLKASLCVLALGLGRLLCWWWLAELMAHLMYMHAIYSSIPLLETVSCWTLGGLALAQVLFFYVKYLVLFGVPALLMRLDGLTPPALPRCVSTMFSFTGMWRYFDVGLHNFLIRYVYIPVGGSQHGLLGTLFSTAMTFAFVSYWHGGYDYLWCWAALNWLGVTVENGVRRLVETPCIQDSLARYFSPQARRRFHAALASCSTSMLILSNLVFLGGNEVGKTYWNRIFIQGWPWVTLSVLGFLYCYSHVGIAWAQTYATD

B1: nanobody NB169 (VHH)
VHH: QVQLVESGGGLVQAGGSLRLSCAASGSIRSINGMGWYRQAPGKQRELVAALSSGGSTNYADSVKGRFTISRDNAKKTVNLQMNSLKPEDTAVYYCNARRGGRSWSEGPPYDYWGQGTQVTVSS
IC50 of inhibition of HHAT-catalysed palmitoyl transfer to a SHH peptide (acyl-cLIP assay); blocks HHAT with SHH: 1.3 nM

B2: nanobody NB177 (VHH)
VHH: QVQLVESGGGLVQAGGSLRLSCTASGAIFSTYDVSWYRQAPEKPRELVAIITRGGNTHYADTVKGRFTISRDNAKNTVYLQMNSLKPEDTAVYYCHAGVQGAMLGPRNYWGQGTQVTVSS
IC50 of inhibition of HHAT-catalysed palmitoyl transfer to a SHH peptide (acyl-cLIP assay); blocks HHAT with SHH: 0.9 nM
